Variants at the floor of the assay were thinned out.
B1: TPR 5TU (parent)
chain: GGAUCUUCUCGAUCUAACAAAAAAGACAAAUCUGCCACAAAGCUUGAGAGCAUCUUCGGAUGCAGAGGCGGCAGCCUUCGGUGGCGCGAUAGCGCCAACGUUCUCAACUAUGACACGCAAAACGCGUGCUCCGUUGAAUGGAGUUUAUCAUG

Variants of: B1
Test: polymerase ribozyme fitness, log enrichment relative to wild type (log ratio); higher = more active; in vitro selection for triplet polymerase activity
How it was run: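 Input and output libraries were sequenced on Illumina after a single in vitro selection round, run in triplicate on PCR-built, transcribed mutant libraries of each subunit of a heterodimeric triplet polymerase ribozyme. Selection annealed libraries to a biotinylated primer, the partner subunit and triplets, incubated them frozen at −7 °C, then gel-excised extended constructs for streptavidin-bead capture and RT-PCR. Genotypes with ≥10 input reads and ≥1 read per output were kept. Fitness is the logarithm, taken in base 2, of genotype enrichment divided by wild-type enrichment, using inverse-variance-weighted replicate averages.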

**Q.** Which “polymerase ribozyme fitness (log ratio)” value does the source give for GGAUCUUCUCGAUCUAACAAAAAAGACAAAUCUGCCACAAAGCUUGAGAGGAUCUUCGGAUGCAGAGGCGGCAGCCUUCGGUGGCGCGAUAGCGUCAACGUUCUCAACUAUGACACGCAAAACGCGUGCUCCGUUGAAUGGAGUUUAUCAUG here?
**A.** -2.73

**Q.** With GGAUCUUCUCGAUCUAACAAAAAAGACAAAUCUGCCACAAAGCUUGAGAGAAUCUUCGGAUGCAGAGGCGGCAGCCUUCGGUGGCGCGAUAUCGCCAACGUUCUCAACUAUGACACGCAAAACGCGUGCUCCGUUGAAUGGAGUUUAUCAUG as the variant, how does the “polymerase ribozyme fitness (log ratio)” value read?
**A.** -1.06

**Q.** Which “polymerase ribozyme fitness (log ratio)” value does the source give for GGAUCUUCUCGAUCUAACAAAAAAGACAAAUCUGCCACAAAGCUUGAGAGGAUCUUCGGAUGCAGAGGCGGCAGCCUUCGGUGGCGUGAUAGCGCCAACGUUCUCAACUAUGAGACGCAAAACGCGUGCUCCGUUGAAUGGAGUUUAUCAUG here?
**A.** ≤ -4.2

**Q.** With GGAUCUUCUCGAUCUAACAAAAAAGACAAAUCUGCCACAAAGCUUGAGAGUAUCUUCGGAUGCAGCGGCGGCAACCUUCGGUGGCGCGAGAGCGCCAACGUUCUCAACUAGGACACGCAAAACGCGUGCUCCGUUGAAUGGAGUUUAUCAUG as the variant, how does the “polymerase ribozyme fitness (log ratio)” value read?
**A.** ≤ -4.2

**Q.** Which “polymerase ribozyme fitness (log ratio)” value does the source give for GGAUCUUCUCGAUCUAACAAAAAAGACAAAUCUGCCACAAAGCUUGAGAGGAUCUUCGGAUGCAGAGGCGGCAGCCUUCGGUAGCGCGAUAGCGCCAACGUUCUCAACUAUGACACGCAAAACGCGUGCUCCGCUGAAUGGAGUUUAUCAUG here?
**A.** -3.62

**Q.** For GGAUCUUCUCGAUCUAACAAAAAAGACAAAUCUGCCACAAAGCUUGAGAGGAUCUUCGGAUGCAGAGGCGGCAGCCUUCGGUGGCGCGAUAGCCCCAACGUUCUCAACUAUGACACGCAAAACGCGUGCUCCGUUGAAUGGAGUUUAUUAUG, which “polymerase ribozyme fitness (log ratio)” value is on record?
**A.** -3.9

**Q.** For GGAUCUUCUCGAUCUAACAAAAAAGACAAAUCUGCCACAAAGCUUGAGAGGAUCUACGGAUGCAGAGACGGCAGCCUUCGGUGGCGCGAUAGUGCCGACGUUCGCAACUAUGACACGCAAAACGCGUGCUCCGUUGAAUGGAAUUAAUCAUG, which “polymerase ribozyme fitness (log ratio)” value is on record?
**A.** ≤ -4.2

**Q.** With GGAUCUUCUCGAUCUAACAAAAAAGACAAAUCUGCCACAAAGCUUGAGAGGAUCGUCGGAUGCAGAGGCGGCAGCCUUCGGUGGCGCGAUAGCGCCAACGUUCUCAAAUAUGACACGCUAAACACGUGCUCCGUUGAAUGAAGUUAAUCAUG as the variant, how does the “polymerase ribozyme fitness (log ratio)” value read?
**A.** ≤ -4.2

**Q.** Which “polymerase ribozyme fitness (log ratio)” value does the source give for GGAUCUUCUCGAUCUAACAAAAAAGACAAAUCUGCCACAAAGCUUGAGAGGAUCUUCGGAUGCAGAGGCGGCAGCCUUCGGUGGCGCAAUAGCGCCAACGUUCUCAACUAUGACACGCAAAACGCGUGCUCCGUUGAAUGGAGUUUAUCAUG here?
**A.** ≤ -4.2

**Q.** For GGAUCUUCUCGAUCUAACAAAAAAGACAAAUCUGCCACAAAGCUUGAGAGGAUCUUCGGAUGCAGAGGCGGCAGCCUUCGGUGGCGCGAUAGCACCAACGUUCUCAACUAUGACACGCAAAACGCGUGCUCCGUAGAAUGGAGUUUAUCAUG, which “polymerase ribozyme fitness (log ratio)” value is on record?
**A.** -3.11

**Q.** For GGAUCUUCUCGAUCUAACAAAAAAGACAAAUCUGCCACAAAGCUUGAGAGGAUCUUCGGAUGCAGAGGCGGCAGCCUUCGGUGGCGCGAUAGCGCCAACGUUCUCAACUAUGACACGCAAAACGCGUGCUCCGUUUAAUGGAGGUUAUCAUG, which “polymerase ribozyme fitness (log ratio)” value is on record?
**A.** -2.56

**Q.** For GGAUCUUCUCGAUCUAACAAAAAAGACAAAUCUGCCACAAAGCUUGAGAGGAUCUUCGGAUGCAGAGGCGGCAGCCUUCAGUGUCGCGAUAGCGCCAACGUUCUCAACUAUGACACGCAAAACGCGUGCUCCGUUGAAUCGAGUUUAUCAUG, which “polymerase ribozyme fitness (log ratio)” value is on record?
**A.** ≤ -4.2

**Q.** With GGAUCUUCUCGAUCUAACAAAAAAGACAAAUCUGCCACAAAGCUUGAGAGAAUCUUCGGAUGCAGAGGCGGCAGCCUUCGGUGGCGCGAUAGCCCCAACGUUCUCAUCUAUGACACGCAAAACGCGUGCUCCGUUGAAUGGAGUUUAUCAUG as the variant, how does the “polymerase ribozyme fitness (log ratio)” value read?
**A.** ≤ -4.2

**Q.** With GGAUCUUCUCGAUCUAACAAAAAAGACAAAUCUGCCACAAAGCUUGAGAGGAUCUUCGGAUUCAGAGGCGGCAGCCUUCGGUGGCGCGAUAACGCAAACGUUCUCAACUAUGACACGCAAAACGCGUGCUCCGUUGAAUGGAGUUUAUCAUG as the variant, how does the “polymerase ribozyme fitness (log ratio)” value read?
**A.** ≤ -4.2

**Q.** Which “polymerase ribozyme fitness (log ratio)” value does the source give for GGAUCUUCUCGAUCUAACAAAAAAGACAAAUCUGCCACAAAGCUUGAGAGGAUCUUCGGGUGCAGAGGCGGCAGCCUUCGGUGGCGCGAUAGCGCCAACGUUCUCAACUAUGACACGCAAAACGCGUGCUCCGUUGAAUGGAGUUUAUCAUG here?
**A.** -1.74

**Q.** Which “polymerase ribozyme fitness (log ratio)” value does the source give for GGAUCUUCUCGAUCUAACAAAAAAGACAAAUCUGCCACAAAGCUUGAGAGGAUCAUCGGAUGCAGAGGCGGCAGCCUUCGGUGGCGCGAUAGCGCCAACGUUCUCAACUAUGACACGCAAAACGCGUGCUCCGUUGAAUGGAGUUUAUCAUG here?
**A.** -2.88

**Q.** For GGAUCUUCUCGAUCUAACAAAAAAGACAAAUCUGCCACAAAGCUUGAGAGUAUCUUCGGAUGUAGAGGCGGCAGCCUUCGGUCGCGCGAUAGCGCCAACGUUCUCAACUAUGACACGCAAAACGCGUGCUCCGUUGAAUGGAGUUUAUCACG, which “polymerase ribozyme fitness (log ratio)” value is on record?
**A.** ≤ -4.2

**Q.** With GGAUCUUCUCGAUCUAACAAAAAAGACAAAUCUGCCACAAAGCUUGAGAGAAUCUUCGGAUGCAGAGGCGGCAGCCUUCGGUGGCGCGAUAGCGCCAACGUUCUCAACUAUGACACGUAAAACGCGUGCUCCGUUGAAUGGAGUUUAUCAUA as the variant, how does the “polymerase ribozyme fitness (log ratio)” value read?
**A.** -3.06

**Q.** For GGAUCUUCUCGAUCUAACAAAAAAGACAAAUCUGCCACAAAGCUUGAGAGAAUCUUCGGAUGCAGAGGCGGCAGCCUUCGGUGGCGCGAUAGCGCUUACGUUCUCAACUAUGACACGCAAAACGCGUGCUCCGUUGAAUGGAGUUUAUCAUG, which “polymerase ribozyme fitness (log ratio)” value is on record?
**A.** -2.73

— the RNAGym collection of RNA variant scans (doi:10.1073/pnas.2313332121)
